B1: VF2468 site 1 VEGF-A promoter (dsDNA)
DNA 1: AGCAGCGTCTTCGAGAGTGAGGA
DNA 2: TCCTCACTCTCGAAGACGCTGCT
B2: CCR5-224 site 3 BTBD10 promoter (dsDNA)
DNA 1: GTTTTCCTCATCAAAGCAAACTGCAAAAT
DNA 2: ATTTTGCAGTTTGCTTTGATGAGGAAAAC
B3: CCR5-224 site 15 KCNB2 (dsDNA)
DNA 1: ATGTTCCTCATCTCCCGAAACTGCAAATG
DNA 2: CATTTGCAGTTTCGGGAGATGAGGAACAT
B4: CCR5-224 site 25 WBSCR17 (dsDNA)
DNA 1: GTTATCCTCAGCAAACTAAAACTGGAACAG
DNA 2: CTGTTCCAGTTTTAGTTTGCTGAGGATAAC
B5: CCR5-224 site 21 (dsDNA)
DNA 1: GTCAACCTCAACACCTACAGACTGCAAAAG
DNA 2: CTTTTGCAGTCTGTAGGTGTTGAGGTTGAC
B6: CCR5-224 site 11 TACR3 (dsDNA)
DNA 1: GTCATCTTCATCAGCATAAACTGTAAAGT
DNA 2: ACTTTACAGTTTATGCTGATGAAGATGAC
B7: CCR5-224 site 9 (dsDNA)
DNA 1: GTCATCTTCATCAAAAGGAACTGCAAAAC
DNA 2: GTTTTGCAGTTCCTTTTGATGAAGATGAC
B8: CCR5-224 site 2 CCR2 (dsDNA)
DNA 1: GTCGTCCTCATCTTAATAAACTGCAAAAA
DNA 2: TTTTTGCAGTTTATTAAGATGAGGACGAC
B9: CCR5-224 site 1 CCR5 (dsDNA)
DNA 1: GTCATCCTCATCCTGATAAACTGCAAAAG
DNA 2: CTTTTGCAGTTTATCAGGATGAGGATGAC
B10: CCR5-224 site 16 (dsDNA)
DNA 1: GTCTTCCTGATGCTACCAAACTGGAAAAG
DNA 2: CTTTTCCAGTTTGGTAGCATCAGGAAGAC
B11: CCR5-224 site 14 (dsDNA)
DNA 1: GTCCTGCTCAGCAAAAGAAACTGAAAAAG
DNA 2: CTTTTTCAGTTTCTTTTGCTGAGCAGGAC
B12: VF2468 site 79 (dsDNA)
DNA 1: AGCACCGTGGCTTCGAGTGAGGC
DNA 2: GCCTCACTCGAAGCCACGGTGCT
B13: VF2468 site 72 (dsDNA)
DNA 1: AGAAACGTCGTGGAGGAGTGAGGG
DNA 2: CCCTCACTCCTCCACGACGTTTCT
B14: VF2468 site 18 (dsDNA)
DNA 1: AGCAGAGTCAGACTTGAGTGAGGT
DNA 2: ACCTCACTCAAGTCTGACTCTGCT
B15: VF2468 site 23 (dsDNA)
DNA 1: AGCAGCGACGCCTGGGAGTGAGGT
DNA 2: ACCTCACTCCCAGGCGTCGCTGCT
B16: VF2468 site 11 PTK2B (dsDNA)
DNA 1: AGCAGCGTCTCCCTTGAGTGATGG
DNA 2: CCATCACTCAAGGGAGACGCTGCT
B17: VF2468 site 68 PDE9A (dsDNA)
DNA 1: AGCACCGTCCCCCTCAGTGAGGC
DNA 2: GCCTCACTGAGGGGGACGGTGCT
B18: VF2468 site 80 (dsDNA)
DNA 1: AGCACGGTCATGATGAGTGAGGC
DNA 2: GCCTCACTCATCATGACCGTGCT
B19: VF2468 site 73 (dsDNA)
DNA 1: AGCAAAGTCTGTACTGAGTGAGGG
DNA 2: CCCTCACTCAGTACAGACTTTGCT
B20: VF2468 site 87 (dsDNA)
DNA 1: AGCATTGTCTCATGTGAGTGAGGT
DNA 2: ACCTCACTCACATGAGACAATGCT

Each binder was assayed against VF2468 ZFN pair (artificial) (assay: cleavage_in_vitro; ZFN amount for 50% cleavage of 8 nM linear substrate, 4 h 37 C, 10 mM Mg acetate; FIG. 9 legend gives spacer as TCGAA). Conditions: tags: N-terminal FLAG, FokI cleavage domain.
Sequence of VF2468 ZFN pair (artificial) (chain, as listed by the source, chain 1 of 2): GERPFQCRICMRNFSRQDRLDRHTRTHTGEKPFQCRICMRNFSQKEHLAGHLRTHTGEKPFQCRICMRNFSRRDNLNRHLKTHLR
Sequence of VF2468 ZFN pair (artificial) (chain, as listed by the source, chain 2 of 2): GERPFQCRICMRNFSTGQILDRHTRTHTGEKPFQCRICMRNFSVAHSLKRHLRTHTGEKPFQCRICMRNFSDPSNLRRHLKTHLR
Method: (§1) FIGS. 6A-D. Expression and quantification of ZFNs. Western blots for CCR5-224 and VF2468 are shown (a) for the ZFN samples used in the in vitro selection, and (b) for quantification. (c) Known quantities of N-terminal FLAG-tagged bacterial alkaline phosphatase (FLAG-BAP) were used to generate a standard curve for ZFN quantification. […] (d) Gels are shown of activity assays of CCR5-224 and VF2468 on an 8 nM linear substrate containing one target cleavage site. The ZFNs were each incubated with their respective substrate for 4 hours at 37° C. DNA in the “+lysate” lane was incubated with an amount of in vitro transcription/translation mixture equivalent to that used in the 2.5 nM ZFN reaction. ZFN-mediated cleavage results in two linear fragments approximately 700 bp and 300 bp in length. 2 nM CCR5-224 and 1 nM VF2468 were the amounts required for 50% cleavage of the linear substrate.
(§2) Test substrates for CCR5-224 and VF2468 were constructed by cloning into the HindIII/XbaI sites of pUC19. PCR with primers “test fwd” and “test rev” and Taq DNA polymerase yielded a linear 1 kb DNA that could be cleaved by the appropriate ZFN into two fragments of sizes ˜300 bp and ˜700 bp. […] Reactions were purified with the Qiagen PCR Purification Kit and analyzed on 1% TAE-agarose gels.

In the case of B1, the EC50 is reported as 1 nM.

What follows are binders tested against CCR5-224 ZFN pair expressed in K562 (artificial) (assay: cell_activity; K562). Conditions: tags: FokI cleavage domain.
Sequence of CCR5-224 ZFN pair expressed in K562 (artificial) (chain, as listed by the source, chain 1 of 2): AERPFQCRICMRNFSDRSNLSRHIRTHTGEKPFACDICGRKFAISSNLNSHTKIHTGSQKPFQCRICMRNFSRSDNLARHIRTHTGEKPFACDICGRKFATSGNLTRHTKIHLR
Sequence of CCR5-224 ZFN pair expressed in K562 (artificial) (chain, as listed by the source, chain 2 of 2): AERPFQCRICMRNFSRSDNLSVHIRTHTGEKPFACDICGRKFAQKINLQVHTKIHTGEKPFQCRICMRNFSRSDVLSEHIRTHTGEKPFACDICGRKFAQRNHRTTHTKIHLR
Method: We were unable to obtain site-specific PCR amplification products for three CCR5-224 sites and seven VF2468 sites and therefore could not analyze the occurrence of NHEJ at those loci. Taken together, these observations indicate that off-target sequences identified through the in vitro selection method include many DNA sequences that can be cleaved by ZFNs in human cells.
To deliver ZFN expression plasmids into cells, 15 μg of either active CCR5-224 ZFN DNA or empty vector DNA were used to Nucleofect 2×10⁶ K562 cells in duplicate reactions following the manufacturer's instructions for Cell Line Nucleofector Kit V (Lonza). GFP-positive cells were isolated by FACS 24 hours post-transfection, expanded, and harvested five days post-transfection with the QIAamp DNA Blood Mini Kit (Qiagen).
PCR for 37 potential CCR5-224 substrates and 97 potential VF2468 substrates was performed with Phusion DNA Polymerase (NEB) and primers “[ZFN] […] fwd” and “[ZFN] […] rev” (Table 9) in 1× Phusion HF Buffer supplemented with 3% DMSO. Primers were designed using Primer3³³. The amplified DNA was purified with the Qiagen PCR Purification Kit, eluted with 10 mM Tris-HCl, pH 8.5, and quantified by 1K Chip on a LabChip GX instrument (Caliper Life Sciences) and combined into separate equimolar pools for the catalytically active and empty vector control samples. PCR products were not obtained for 3 CCR5 sites and 7 VF2468 sites, which excluded these samples from further analysis. Multiplexed Illumina library preparation was performed according to the manufacturer's specifications, except that AMPure XP beads (Agencourt) were used for purification following adapter ligation and PCR enrichment steps. Illumina indices 11 (“GGCTAC”) and 12 (“CTTGTA”) were used for ZFN-treated libraries while indices 4 (“TGACCA”) and 6 (“GCCAAT”) were used for the empty vector controls. Library concentrations were quantified by KAPA Library Quantification Kit for Illumina Genome Analyzer Platform (Kapa Biosystems). Equal amounts of the barcoded libraries derived from active- and empty vector-treated cells were diluted to 10 nM and subjected to single read sequencing on an Illumina HiSeq 2000 at the Harvard University FAS Center for Systems Biology Core facility. Sequences were analyzed using Protocol 9 for active ZFN samples and empty vector controls.

First: B2
Second: B3
The activity of the first is lower: 0.07 % indels for the first, 0.071 % indels for the second.

First: B4
Second: B5
The activity of the first is higher: 0.12 % indels for the first, 0.06 % indels for the second.

Going from B6 to B7, the activity falls from 0.34 % indels to 0.035 % indels.

Going from B8 to B9, the activity rises from 10 % indels to 44 % indels.

First: B10
Second: B11
The activity of the first is lower: 0.019 % indels for the first, 0.025 % indels for the second.

Each binder was assayed against CCR5-224 ZFN pair (artificial) (assay: cleavage_in_vitro; ZFN amount for 50% cleavage of 8 nM linear substrate, 4 h 37 C, 10 mM Mg acetate). Conditions: tags: N-terminal FLAG, FokI cleavage domain.
Method: as §1, §2

B9 gave an EC50 of 2 nM.

These binders were tested against VF2468 ZFN pair expressed in K562 (artificial) (assay: cell_activity; K562). Conditions: tags: FokI cleavage domain.

Going from B12 to B13, the activity rises from 0.029 % indels to 0.042 % indels.

First: B14
Second: B15
The activity of the first is lower: 0.1 % indels for the first, 1.1 % indels for the second.

First: B16
Second: B17
The activity of the first is lower: 0.04 % indels for the first, 0.28 % indels for the second.

Compared with B18, B19 is higher in activity: 0.041 % indels for the first, 1.3 % indels for the second.

B20 showed an activity of 0.6 % indels.

— patent US20150010526, “EVALUATION AND IMPROVEMENT OF NUCLEASE CLEAVAGE SPECIFICITY” (President and Fellows of Harvard College, published 2015)
